Data as given in patent US20200317802A1 (Merck KGaA, published 2020).
Changes are numbered by the printed parent chain.

T1: guinea pig recombinant ADAMTS5 (guinea pig)
T1 chain: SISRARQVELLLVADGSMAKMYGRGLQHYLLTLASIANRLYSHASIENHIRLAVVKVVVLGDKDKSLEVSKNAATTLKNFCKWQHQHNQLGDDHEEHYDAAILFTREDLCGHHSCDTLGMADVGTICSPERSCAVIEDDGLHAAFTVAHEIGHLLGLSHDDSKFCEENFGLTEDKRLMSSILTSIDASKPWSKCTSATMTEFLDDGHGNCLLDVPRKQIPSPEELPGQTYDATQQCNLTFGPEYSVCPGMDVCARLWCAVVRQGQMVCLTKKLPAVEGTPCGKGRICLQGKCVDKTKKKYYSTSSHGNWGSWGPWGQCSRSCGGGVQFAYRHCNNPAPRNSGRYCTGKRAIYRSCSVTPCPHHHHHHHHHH

T2: recombinant human ADAMTS5 (R&D Systems cat #2198-AD) (human, UniProt Q9UNA0 262-622, limits assumed)
T2 sequence: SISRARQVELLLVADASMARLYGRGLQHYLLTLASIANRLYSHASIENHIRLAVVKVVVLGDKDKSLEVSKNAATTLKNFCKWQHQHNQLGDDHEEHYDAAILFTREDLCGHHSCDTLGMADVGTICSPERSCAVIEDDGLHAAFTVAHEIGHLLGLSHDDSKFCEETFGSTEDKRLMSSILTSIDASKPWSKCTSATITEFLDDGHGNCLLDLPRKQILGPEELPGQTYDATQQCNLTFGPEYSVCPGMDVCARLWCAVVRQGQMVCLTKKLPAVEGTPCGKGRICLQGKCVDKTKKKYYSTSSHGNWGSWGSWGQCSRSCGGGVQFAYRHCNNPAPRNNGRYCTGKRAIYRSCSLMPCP

T3: cynomolgus monkey recombinant ADAMTS5 (cynomolgus monkey, UniProt Q9UNA0 262-622 (human entry), limits assumed)
T3 chain: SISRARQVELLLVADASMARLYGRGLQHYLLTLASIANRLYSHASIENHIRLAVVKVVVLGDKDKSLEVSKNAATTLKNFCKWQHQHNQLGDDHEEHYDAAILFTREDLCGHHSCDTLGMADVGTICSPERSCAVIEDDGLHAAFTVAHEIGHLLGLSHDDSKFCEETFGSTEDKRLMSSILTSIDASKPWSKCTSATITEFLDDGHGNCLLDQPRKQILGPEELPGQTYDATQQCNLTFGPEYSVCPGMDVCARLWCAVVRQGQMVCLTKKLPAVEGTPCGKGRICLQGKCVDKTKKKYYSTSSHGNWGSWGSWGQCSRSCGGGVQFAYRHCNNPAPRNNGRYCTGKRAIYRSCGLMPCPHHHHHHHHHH

B1: Nanobody 2A12 (VHH)
VHH: EVQLVESGGGLVQAGGSLRLSCAASGRTFSSYAMGWFRQAPGKERDFVAGISRSAGRTYYVDSVKGRFTISRDSAKNTVYLQMNRLKPEDTAVYYCAADLDPNRIFSRDEAAYWGQGTLVTVSS
notes: tagged as tested (anti-Flag detection, IMAC); also called 02A12
B2: Nanobody 2F03 (VHH)
VHH: B1 VHH with F29V, Q39L, D46E, G56E, V64L, Q82H, D109E, A111Y
notes: tagged as tested (anti-Flag detection, IMAC); also called 02F03; 2F3

Assays:
[1] = molecular target: T1, guinea pig recombinant ADAMTS5; assay: cell-based or functional assay
[2] = molecular target: T2, recombinant human ADAMTS5 (R&D Systems …); assay: cell-based or functional assay
[3] = molecular target: T3, cynomolgus monkey recombinant ADAMTS5; assay: cell-based or functional assay
[4] = molecular target: T1, guinea pig recombinant ADAMTS5; assay: SPR off-rate, Biacore T100, ADAMTS5 immobilised, experiment 1
Procedure: (§1) Species cross-reactivity was initially evaluated via SPR-based off-rate analysis on a Biacore T100 instrument. Nanobodies were tested for binding to human, cynomolgus monkey (“cyno”), guinea pig, mouse, and bovine ADAMTS5. To this end, recombinant ADAMTS5 was immobilized onto a CM5 chip via amine coupling using EDC and NHS. Purified Nanobodies were injected for 2 minutes at a concentration of 100 nM and allowed to dissociate for 15 min at a flow rate of 45 ul/min. Off-rate for each individual Nanobody was determined by fitting a 1:1 interaction model (Langmuir model) onto the individual dissociation curves using the BIA Evaluation software. As a reference, off-rates on human ADAMTS5 were determined in each experiment.

[5] = molecular target: T2, recombinant human ADAMTS5 (R&D Systems …); assay: as above
Procedure: as §1

[6] = molecular target: T3, cynomolgus monkey recombinant ADAMTS5; assay: as above
Procedure: as §1

Binder	AlphaLISA potency IC50, Guinea pig [1]	AlphaLISA potency IC50, Human [2]	AlphaLISA potency IC50, Cyno [3]	koff [4]	koff [5]	koff [6]
B1	530 pM	150 pM	190 pM	0.00012 s⁻¹	0.00014 s⁻¹	0.0001 s⁻¹
B2	300 pM	75 pM	81 pM	3.4e-05 s⁻¹	3.3e-05 s⁻¹	2.2e-05 s⁻¹
